In the supplement of paper PMC9112550, “Optimization of the antimicrobial peptide Bac7 by deep mutational scanning” (BMC Biology, 2022):

Test system: Escherichia coli TOP10
Experiment: shrunken log2 fold change of peptide-encoding DNA abundance (4.5 h post-induction vs induction); higher = less antimicrobial activity (less host growth inhibition)
Details: time post-induction: 4.5 h; library: site-saturation at positions 5, 18, 19, 20
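Further: peptides expressed intracellularly from a pBAD plasmid library in pooled LB shake-flask culture, induced with 0.3% L-arabinose, DNA abundance read by NGS, three biological replicates, DESeq2 with apeglm shrinkage.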

| Sequence | shrunken log2 fold change |
| --- | --- |
| RRIRMRPPRLPRPRPRPFQRPRP | -0.0335 |
| RRIRGRPPRLPRPRPRPGELPRP | 0.61 |
| RRIRKRPPRLPRPRPRPLVFPRP | -0.0076 |
| RRIRDRPPRLPRPRPRPLKYPRP | -0.529 |
| RRIRIRPPRLPRPRPRPATTPRP | -0.145 |
| RRIRQRPPRLPRPRPRPAFMPRP | -0.0902 |
| RRIRWRPPRLPRPRPRPRLYPRP | 0.245 |
| RRIRTRPPRLPRPRPRPAHFPRP | 0.13 |
| RRIRPRPPRLPRPRPRPQNIPRP | -0.456 |
| RRIRCRPPRLPRPRPRPCFCPRP | -0.367 |
| RRIRNRPPRLPRPRPRPIYKPRP | -0.414 |
| RRIRRRPPRLPRPRPRPDDFPRP | 0.252 |
| RRIRFRPPRLPRPRPRPWWQPRP | -0.0583 |
| RRIRNRPPRLPRPRPRPGWIPRP | -0.265 |
| RRIRERPPRLPRPRPRPDDLPRP | 0.00911 |
| RRIRFRPPRLPRPRPRPVRYPRP | -0.0423 |
| RRIRVRPPRLPRPRPRPWNAPRP | -0.0893 |
| RRIRSRPPRLPRPRPRPMVKPRP | -0.0162 |
| RRIRVRPPRLPRPRPRPTISPRP | -0.12 |
| RRIRRRPPRLPRPRPRPTYGPRP | 0.0875 |
| RRIRQRPPRLPRPRPRPAIAPRP | 0.0382 |
| RRIRHRPPRLPRPRPRPHDLPRP | 0.0509 |
| RRIRPRPPRLPRPRPRPRCSPRP | 0.00477 |
| RRIRDRPPRLPRPRPRPDIHPRP | -0.0156 |
| RRIRARPPRLPRPRPRPMSAPRP | 0.361 |

| Sequence | shrunken log2 fold change |
| --- | --- |
| RRIRLRPPRLPRPRPRPYGKPRP | -0.242 |
| RRIRCRPPRLPRPRPRPADRPRP | -0.0122 |
| RRIRLRPPRLPRPRPRPWRAPRP | 0.392 |
| RRIRSRPPRLPRPRPRPKMTPRP | 0.0901 |
| RRIRPRPPRLPRPRPRPYSQPRP | -1.06 |
| RRIRLRPPRLPRPRPRPYCLPRP | -0.303 |
| RRIRCRPPRLPRPRPRPADHPRP | 0.0117 |
| RRIRFRPPRLPRPRPRPAWKPRP | -0.284 |
| RRIRHRPPRLPRPRPRPLLIPRP | -0.516 |
| RRIRCRPPRLPRPRPRPICFPRP | -0.241 |
| RRIRNRPPRLPRPRPRPEQTPRP | 0.235 |
| RRIRTRPPRLPRPRPRPDYDPRP | 0.00888 |
| RRIRPRPPRLPRPRPRPDAAPRP | 0.721 |
| RRIRVRPPRLPRPRPRPWKMPRP | -0.148 |
| RRIRHRPPRLPRPRPRPYMAPRP | -0.339 |
| RRIRERPPRLPRPRPRPGIDPRP | -0.14 |
| RRIRGRPPRLPRPRPRPTLCPRP | 0.443 |
| RRIRCRPPRLPRPRPRPVWAPRP | 0.351 |
| RRIRIRPPRLPRPRPRPWSQPRP | -0.738 |
| RRIRKRPPRLPRPRPRPHMEPRP | 0.0155 |
| RRIRNRPPRLPRPRPRPIAVPRP | -0.0167 |
| RRIRARPPRLPRPRPRPGLAPRP | 1 |
| RRIRARPPRLPRPRPRPCVKPRP | 0.069 |
| RRIRQRPPRLPRPRPRPDSVPRP | -0.0518 |
| RRIRTRPPRLPRPRPRPWRQPRP | 0.0481 |
